US20120172293A1 (Takeda / Millennium, published 2012)
Starred links: 1 amine or outer side, 2 acyl side, 3 side chain; linkers in the order of their positions; H or OH if unused. Non-standard residues stand in square brackets, D forms with d. Primed or numbered codes have the meaning given here. *: point of attachment. Ser(Me)(3) = methylserine, COC[C@H](N[*:1])C(=O)[*:2]; Ser(Me)″ = O-methylserine, COC[C@H](N[*:1])C(=O)[*:2]; Cha = N[C@@H](CC1CCCCC1)C(=O)O; Isobutyryl = CC(C)C(=O)*; NMeA = CN[C@@H](C)C(=O)O; dNMeA = CN[C@H](C)C(=O)O; Nva = CCC[C@H](N)C(=O)O; Abu = CC[C@H](N)C(=O)O; Nleu = CC(C)CNCC(=O)O; Aib = CC(C)(N)C(=O)O; Bz = O=C(c1ccccc1)*

Experiments:
[1] = biological target: human Y2 receptor (human) (UniProt P49146); experiment: cell-based or functional assay
Chain of human Y2 receptor (human) (P49146 whole entry): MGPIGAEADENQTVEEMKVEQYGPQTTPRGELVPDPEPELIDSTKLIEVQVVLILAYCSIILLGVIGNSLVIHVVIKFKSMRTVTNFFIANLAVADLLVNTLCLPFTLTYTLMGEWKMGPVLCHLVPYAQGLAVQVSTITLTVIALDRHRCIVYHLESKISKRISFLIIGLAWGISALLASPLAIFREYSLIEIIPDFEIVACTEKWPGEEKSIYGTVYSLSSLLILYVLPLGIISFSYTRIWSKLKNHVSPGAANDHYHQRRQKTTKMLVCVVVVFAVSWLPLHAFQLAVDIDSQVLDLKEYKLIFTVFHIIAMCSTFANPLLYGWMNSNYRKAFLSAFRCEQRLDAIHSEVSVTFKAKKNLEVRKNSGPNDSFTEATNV

[2] = biological target: human Y2 receptor (human) (UniProt P49146); experiment: RBA: [125I]-PYY displacement, hY2R/CHO membranes

Molecule	GBA EC50 Ratio (vs PYY(3-36)), [35S]GTPγS [1]	IC50 Ratio (vs PYY(3-36)) [2]
[N(2-hydroxyethyl)Gly23, D-Pro24, Cha27,28,36, Aib31]-PYY(23-36) (peptide)	1.2	2
[N(iBu)Gly23, D-Pro24, Cha27,28,36, Aib31]-PYY(23-36) (peptide)	2.4	5.8
[βAla23, D-Pro24, Cha27,28,36, Aib31]-PYY(23-36) (peptide)	1.2	1.7
[Lys(Ac)23, D-Pro24, Cha27,28,36, Aib31]-PYY(23-36) (peptide)	2.5	5.4
Ac-[Hse23, D-Pro24, Cha27,28,36, Aib31]-PYY(23-36) (peptide)	1.6	2.5
Ac-[D-Pro24, Pya(4)26, Cha27,36, Aib28,31, Lys30]-PYY(23-36) (peptide)	1.3	1.8
Ac-[D-Iva23, D-Pro24, Cha27,28,36, Aib31]-PYY(23-36) (peptide)	31	20
Ac-S[Nleu]RH[Cha][Cha]NL[Aib]TRQR[Cha]-NH2 (SMILES CC(=O)N[C@@H](CO)C(=O)N(CC(=O)N[C@@H](CCCNC(=N)N)C(=O)N[C@@H](Cc1c[nH]cn1)C(=O)N[C@@H](CC1CCCCC1)C(=O)N[C@@H](CC1CCCCC1)C(=O)N[C@@H](CC(N)=O)C(=O)N[C@@H](CC(C)C)C(=O)NC(C)(C)C(=O)N[C@H](C(=O)N[C@@H](CCCNC(=N)N)C(=O)N[C@@H](CCC(N)=O)C(=O)N[C@@H](CCCNC(=N)N)C(=O)N[C@@H](CC1CCCCC1)C(N)=O)[C@@H](C)O)CC(C)C) [Ac-[N(iBu)Gly24, Cha27,28,36, Aib31]-PYY(23-36)]	8.4	20
Isobutyryl-R[Abu][Cha]QNL[Aib]TRQR[Cha]-NH2 (SMILES CC[C@H](NC(=O)[C@H](CCCNC(=N)N)NC(=O)C(C)C)C(=O)N[C@@H](CC1CCCCC1)C(=O)N[C@@H](CCC(N)=O)C(=O)N[C@@H](CC(N)=O)C(=O)N[C@@H](CC(C)C)C(=O)NC(C)(C)C(=O)N[C@H](C(=O)N[C@@H](CCCNC(=N)N)C(=O)N[C@@H](CCC(N)=O)C(=O)N[C@@H](CCCNC(=N)N)C(=O)N[C@@H](CC1CCCCC1)C(N)=O)[C@@H](C)O) [Isobutanoyl-[Abu26, Cha27,36, Gln28, Aib31]-PYY(25-36)]	30	45
Ac-S[dNMeA]RH[Cha][Cha]NL[Aib]TRQR[Cha]-NH2 (SMILES CC(=O)N[C@@H](CO)C(=O)N(C)[C@H](C)C(=O)N[C@@H](CCCNC(=N)N)C(=O)N[C@@H](Cc1c[nH]cn1)C(=O)N[C@@H](CC1CCCCC1)C(=O)N[C@@H](CC1CCCCC1)C(=O)N[C@@H](CC(N)=O)C(=O)N[C@@H](CC(C)C)C(=O)NC(C)(C)C(=O)N[C@H](C(=O)N[C@@H](CCCNC(=N)N)C(=O)N[C@@H](CCC(N)=O)C(=O)N[C@@H](CCCNC(=N)N)C(=O)N[C@@H](CC1CCCCC1)C(N)=O)[C@@H](C)O) [Ac-[D-MeAla24, Cha27,28,36, Aib31]-PYY(23-36)]	2.2	3.4
Ac-[Ser(Me)(3)][dP]R[Abu][Cha][Cha]NL[Aib]TRQR[Cha]-NH2 (SMILES CC[C@H](NC(=O)[C@H](CCCNC(=N)N)NC(=O)[C@H]1CCCN1C(=O)[C@H](COC)NC(C)=O)C(=O)N[C@@H](CC1CCCCC1)C(=O)N[C@@H](CC1CCCCC1)C(=O)N[C@@H](CC(N)=O)C(=O)N[C@@H](CC(C)C)C(=O)NC(C)(C)C(=O)N[C@H](C(=O)N[C@@H](CCCNC(=N)N)C(=O)N[C@@H](CCC(N)=O)C(=O)N[C@@H](CCCNC(=N)N)C(=O)N[C@@H](CC1CCCCC1)C(N)=O)[C@@H](C)O) [Ac-[Ser(Me)23, D-Pro24, Abu26, Cha27,28,36, Aib31]-PYY(23-36)]	3.8	5.2
Ac-F[dP]R[Abu][Cha][Cha]NL[Aib]TRQR[Cha]-NH2 (SMILES CC[C@H](NC(=O)[C@H](CCCNC(=N)N)NC(=O)[C@H]1CCCN1C(=O)[C@H](Cc1ccccc1)NC(C)=O)C(=O)N[C@@H](CC1CCCCC1)C(=O)N[C@@H](CC1CCCCC1)C(=O)N[C@@H](CC(N)=O)C(=O)N[C@@H](CC(C)C)C(=O)NC(C)(C)C(=O)N[C@H](C(=O)N[C@@H](CCCNC(=N)N)C(=O)N[C@@H](CCC(N)=O)C(=O)N[C@@H](CCCNC(=N)N)C(=O)N[C@@H](CC1CCCCC1)C(N)=O)[C@@H](C)O) [Ac-[Phe23, D-Pro24, Abu26, Cha27,28,36, Aib31]-PYY(23-36)]	5.9	12
Ac-[Abu][dP]R[Abu][Cha][Cha]NL[Aib]TRQR[Cha]-NH2 (SMILES CC[C@H](NC(=O)[C@H](CCCNC(=N)N)NC(=O)[C@H]1CCCN1C(=O)[C@H](CC)NC(C)=O)C(=O)N[C@@H](CC1CCCCC1)C(=O)N[C@@H](CC1CCCCC1)C(=O)N[C@@H](CC(N)=O)C(=O)N[C@@H](CC(C)C)C(=O)NC(C)(C)C(=O)N[C@H](C(=O)N[C@@H](CCCNC(=N)N)C(=O)N[C@@H](CCC(N)=O)C(=O)N[C@@H](CCCNC(=N)N)C(=O)N[C@@H](CC1CCCCC1)C(N)=O)[C@@H](C)O) [Ac-[Abu23, D-Pro24, Abu26, Cha27,28,36, Aib31]-PYY(23-36)]	4	6.9
Isobutyryl-R[Abu][Cha]SNL[Aib]TRQR[Cha]-NH2 (SMILES CC[C@H](NC(=O)[C@H](CCCNC(=N)N)NC(=O)C(C)C)C(=O)N[C@@H](CC1CCCCC1)C(=O)N[C@@H](CO)C(=O)N[C@@H](CC(N)=O)C(=O)N[C@@H](CC(C)C)C(=O)NC(C)(C)C(=O)N[C@H](C(=O)N[C@@H](CCCNC(=N)N)C(=O)N[C@@H](CCC(N)=O)C(=O)N[C@@H](CCCNC(=N)N)C(=O)N[C@@H](CC1CCCCC1)C(N)=O)[C@@H](C)O) [Isobutanoyl-[Abu26, Cha27,36, Ser28, Aib31]-PYY(25-36)]	35	49
Bz-RH[Nva][Cha]NL[Aib]TRQR[Cha]-NH2 (SMILES CCC[C@H](NC(=O)[C@H](Cc1c[nH]cn1)NC(=O)[C@H](CCCNC(=N)N)NC(=O)c1ccccc1)C(=O)N[C@@H](CC1CCCCC1)C(=O)N[C@@H](CC(N)=O)C(=O)N[C@@H](CC(C)C)C(=O)NC(C)(C)C(=O)N[C@H](C(=O)N[C@@H](CCCNC(=N)N)C(=O)N[C@@H](CCC(N)=O)C(=O)N[C@@H](CCCNC(=N)N)C(=O)N[C@@H](CC1CCCCC1)C(N)=O)[C@@H](C)O) [Benzoyl-[Nva27, Cha28,36, Aib31]-PYY(25-36)]	8.6	13
Bz-RHH[Cha]NL[Aib]TRQR[Cha]-NH2 (SMILES CC(C)C[C@H](NC(=O)[C@H](CC(N)=O)NC(=O)[C@H](CC1CCCCC1)NC(=O)[C@H](Cc1c[nH]cn1)NC(=O)[C@H](Cc1c[nH]cn1)NC(=O)[C@H](CCCNC(=N)N)NC(=O)c1ccccc1)C(=O)NC(C)(C)C(=O)N[C@H](C(=O)N[C@@H](CCCNC(=N)N)C(=O)N[C@@H](CCC(N)=O)C(=O)N[C@@H](CCCNC(=N)N)C(=O)N[C@@H](CC1CCCCC1)C(N)=O)[C@@H](C)O) [Benzoyl-[His27, Cha28,36, Aib31]-PYY(25-36)]	4.3	5.6
Isobutyryl-R[Abu][Cha]HNL[Aib]TRQR[Cha]-NH2 (SMILES CC[C@H](NC(=O)[C@H](CCCNC(=N)N)NC(=O)C(C)C)C(=O)N[C@@H](CC1CCCCC1)C(=O)N[C@@H](Cc1c[nH]cn1)C(=O)N[C@@H](CC(N)=O)C(=O)N[C@@H](CC(C)C)C(=O)NC(C)(C)C(=O)N[C@H](C(=O)N[C@@H](CCCNC(=N)N)C(=O)N[C@@H](CCC(N)=O)C(=O)N[C@@H](CCCNC(=N)N)C(=O)N[C@@H](CC1CCCCC1)C(N)=O)[C@@H](C)O) [Isobutanoyl-[Abu26, Cha27,36, His28, Aib31]-PYY(25-36)]	13	19
Bz-R[Ser(Me)″][Cha][Cha]NL[Aib]TRQR[Cha]-NH2 (SMILES COC[C@H](NC(=O)[C@H](CCCNC(=N)N)NC(=O)c1ccccc1)C(=O)N[C@@H](CC1CCCCC1)C(=O)N[C@@H](CC1CCCCC1)C(=O)N[C@@H](CC(N)=O)C(=O)N[C@@H](CC(C)C)C(=O)NC(C)(C)C(=O)N[C@H](C(=O)N[C@@H](CCCNC(=N)N)C(=O)N[C@@H](CCC(N)=O)C(=O)N[C@@H](CCCNC(=N)N)C(=O)N[C@@H](CC1CCCCC1)C(N)=O)[C@@H](C)O) [Benzoyl-[Ser(Me)26, Cha27,28,36, Aib31]-PYY(25-36)]	8.7	18
Bz-RN[Cha][Cha]NL[Aib]TRQR[Cha]-NH2 (SMILES CC(C)C[C@H](NC(=O)[C@H](CC(N)=O)NC(=O)[C@H](CC1CCCCC1)NC(=O)[C@H](CC1CCCCC1)NC(=O)[C@H](CC(N)=O)NC(=O)[C@H](CCCNC(=N)N)NC(=O)c1ccccc1)C(=O)NC(C)(C)C(=O)N[C@H](C(=O)N[C@@H](CCCNC(=N)N)C(=O)N[C@@H](CCC(N)=O)C(=O)N[C@@H](CCCNC(=N)N)C(=O)N[C@@H](CC1CCCCC1)C(N)=O)[C@@H](C)O) [Benzoyl-[Asn26, Cha27,28,36, Aib31]-PYY(25-36)]	21	19
Ac-[dS][NMeA]RH[Cha][Cha]NL[Aib]TRQR[Cha]-NH2 (SMILES CC(=O)N[C@H](CO)C(=O)N(C)[C@@H](C)C(=O)N[C@@H](CCCNC(=N)N)C(=O)N[C@@H](Cc1c[nH]cn1)C(=O)N[C@@H](CC1CCCCC1)C(=O)N[C@@H](CC1CCCCC1)C(=O)N[C@@H](CC(N)=O)C(=O)N[C@@H](CC(C)C)C(=O)NC(C)(C)C(=O)N[C@H](C(=O)N[C@@H](CCCNC(=N)N)C(=O)N[C@@H](CCC(N)=O)C(=O)N[C@@H](CCCNC(=N)N)C(=O)N[C@@H](CC1CCCCC1)C(N)=O)[C@@H](C)O) [Ac-[D-Ser23, MeAla24, Cha27,28,36, Aib31]-PYY(23-36)]	5.1	6.1
